In US6306613, “Modulators of leaderless protein export and methods for identifying and using the same” (Ciblex Corporation, dated 2001):

Columns and labels:
[1] = target: T1, rat Na+/K+ ATPase α1 subunit (rat, UniProt P06685); assay: co-immunoprecipitation from co-transfected COS cells with anti-Na+/K+ ATPase α1 or anti-hCG antibody (FIG. 6)
[2] = target: T1, rat Na+/K+ ATPase α1 subunit; assay: co-immunoprecipitation from co-transfected COS cells (FIGS. 7-9)

B1: human chorionic gonadotropin α (hCG-α) (ligand)
chain: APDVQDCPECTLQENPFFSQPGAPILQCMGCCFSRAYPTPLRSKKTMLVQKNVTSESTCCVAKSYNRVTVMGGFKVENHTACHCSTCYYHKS
B1: no binding [1].

B2: neomycin phosphotransferase (NPT) (enzyme)
chain: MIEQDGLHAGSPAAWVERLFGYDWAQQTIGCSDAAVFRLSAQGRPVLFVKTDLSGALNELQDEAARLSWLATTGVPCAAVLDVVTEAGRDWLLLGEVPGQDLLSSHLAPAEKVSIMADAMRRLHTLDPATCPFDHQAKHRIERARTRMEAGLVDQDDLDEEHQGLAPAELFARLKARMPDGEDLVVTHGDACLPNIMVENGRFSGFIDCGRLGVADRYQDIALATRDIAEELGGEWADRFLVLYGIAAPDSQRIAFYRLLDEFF
B2: no binding [2].
